Publication PMC10569242, “VvWRKY5 enhances white rot resistance in grape by promoting the jasmonic acid pathway”

T1: VvWRKY5-HIS (Vitis vinifera, UniProt A0ABY9BGE3 8-330)
T1 sequence: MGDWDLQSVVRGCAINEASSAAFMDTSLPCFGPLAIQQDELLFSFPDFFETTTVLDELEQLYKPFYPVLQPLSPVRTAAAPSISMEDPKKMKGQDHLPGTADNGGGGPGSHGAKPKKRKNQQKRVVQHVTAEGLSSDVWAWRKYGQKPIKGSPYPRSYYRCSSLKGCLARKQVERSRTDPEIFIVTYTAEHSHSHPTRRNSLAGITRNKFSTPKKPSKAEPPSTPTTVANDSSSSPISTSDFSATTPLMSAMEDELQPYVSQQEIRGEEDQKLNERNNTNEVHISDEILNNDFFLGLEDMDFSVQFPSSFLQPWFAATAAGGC

B1: VvJAZ2 W-box probe (dsDNA)
DNA 1: TAAATCCTCACATCGGGTCAAGGATCGAGTATGC
DNA 2: GCATACTCGATCCTTGACCCGATGTGAGGATTTA
B2: VvMYC2 W-box probe (dsDNA)
DNA 1: TAGGGTGGGGATTTGACCTGGGTCTGGAGATTCG
DNA 2: CGAATCTCCAGACCCAGGTCAAATCCCCACCCTA

Molecular target: T1, VvWRKY5-HIS
Experiment: EMSA; unlabeled cold probe competitor 100x/200x; LightShift Chemiluminescent EMSA Kit (Beyotime); buffer, salt, pH and temperature not stated
Conditions: protein: recombinant; tags: His (pET-32a(+) fusion); blunt

Row | Binder | binding result
1 | B1 | binds
2 | B2 | binds
